From publication PMC4158885 (The EMBO Journal, 2014)
Blank lines part the entries; values can stand above or below the molecule they belong to.

Columns and labels:
[1] = biological target: ctPan2 PID (Pan3 interaction domain) as used for surface plasmon resonance and isothermal titration calorimetry (Chaetomium thermophilum); assay: SPR; ctPan3 PKC with ctPan2 PID; who was immobilised is not shown (Supplementary Fig S7A–C)
[2] = biological target: ctPan2 PID (Pan3 interaction domain) as used for surface plasmon resonance and isothermal titration calorimetry (Chaetomium thermophilum); assay: ITC; ctPan3 PKC with ctPan2 PID; low protein concentrations, which limits the accuracy of the Kd
[3] = biological target: T1, scPan3 zinc finger (Saccharomyces cerevisiae, UniProt P36102 1-41); assay: NMR chemical shift perturbation; Zn2+; negligible changes; FP: 10 mM Tris pH 8.0, 50 mM NaCl, 1 mM MgCl2, 5 mM beta-mercaptoethanol, 20 nM RNA, temperature not stated; EMSA: deadenylation assay buffer (composition not in material), 0.1-3 uM complex, 40 ng RNA in 10 ul, 15 min RT; NMR: 150 uM protein, 150 uM RNA (HSQC); settings: protein: recombinant; tags: lipoyl domain/His fusion removed by TEV
T1 chain: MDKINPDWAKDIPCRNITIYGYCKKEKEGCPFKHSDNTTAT

[4] = biological target: T2, ctPan3 PKC (Chaetomium thermophilum, UniProt G0S0Y3 205-640); assay: fluorescence polarization; 1 mM Mg2+; FP: 10 mM Tris pH 8.0, 50 mM NaCl, 1 mM MgCl2, 5 mM beta-mercaptoethanol, 20 nM RNA, temperature not stated; EMSA: deadenylation assay buffer (composition not in material), 0.1-3 uM complex, 40 ng RNA in 10 ul, 15 min RT; NMR: 150 uM protein, 150 uM RNA (HSQC); settings: protein: recombinant; tags: GST-TEV construct (pGEX-TEV); chain copies: 2; label: 5' Cy3
T2 sequence: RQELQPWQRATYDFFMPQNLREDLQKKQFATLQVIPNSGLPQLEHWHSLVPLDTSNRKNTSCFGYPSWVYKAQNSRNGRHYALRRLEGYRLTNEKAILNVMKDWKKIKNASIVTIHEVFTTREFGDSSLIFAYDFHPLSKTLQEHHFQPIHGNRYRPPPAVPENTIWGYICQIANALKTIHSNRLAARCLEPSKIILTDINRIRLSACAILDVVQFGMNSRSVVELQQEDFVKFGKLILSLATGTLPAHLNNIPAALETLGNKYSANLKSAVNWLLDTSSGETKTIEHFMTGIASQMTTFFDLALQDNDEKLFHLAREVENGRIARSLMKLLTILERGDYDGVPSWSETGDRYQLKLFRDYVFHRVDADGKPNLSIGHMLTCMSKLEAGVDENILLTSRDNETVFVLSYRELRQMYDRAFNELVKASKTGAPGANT

[5] = biological target: ctPan2 E899A;ctPan3 PKC (Chaetomium thermophilum;Chaetomium …, UniProt G0SAK8;G0S0Y3 1-1170;205-640, E899A|); assay: as above; settings: protein: recombinant;recombinant; tags: Strep-II, His;GST-TEV construct (pGEX-TEV); copies: 1;2; label: 5' Cy3
[6] = biological target: T2, ctPan3 PKC; assay: fluorescence polarization; 1 mM Mg2+; possible G-quadruplex complicates interpretation; FP: 10 mM Tris pH 8.0, 50 mM NaCl, 1 mM MgCl2, 5 mM beta-mercaptoethanol, 20 nM RNA, temperature not stated; EMSA: deadenylation assay buffer (composition not in material), 0.1-3 uM complex, 40 ng RNA in 10 ul, 15 min RT; NMR: 150 uM protein, 150 uM RNA (HSQC); settings: protein: recombinant, tags: GST-TEV construct (pGEX-TEV), chain copies: 2, label: 5' Cy3
[7] = biological target: T1, scPan3 zinc finger; assay: NMR titration; Zn2+; apparent Kd per residue: 62 ± 4, 93 ± 11, 100 ± 13 (peaks of Trp8, Ala9, Asn16); FP: 10 mM Tris pH 8.0, 50 mM NaCl, 1 mM MgCl2, 5 mM beta-mercaptoethanol, 20 nM RNA, temperature not stated; EMSA: deadenylation assay buffer (composition not in material), 0.1-3 uM complex, 40 ng RNA in 10 ul, 15 min RT; NMR: 150 uM protein, 150 uM RNA (HSQC); settings: protein: recombinant; tags: lipoyl domain/His fusion removed by TEV
[8] = biological target: T3, Saccharomyces cerevisiae Pan2 (scPan2), full length, of the recombinant scPan2–Pan3 complex (Saccharomyces cerevisiae, UniProt P53010 1-1115); assay: native MS; nanoESI-MS of the purified recombinant scPan2–Pan3 complex (5.5 mg/ml), buffer-exchanged into 200 mM ammonium acetate pH 8.0; settings: both partners purified
T3 construct: Pan2, Saccharomyces cerevisiae
T3 sequence (looked up): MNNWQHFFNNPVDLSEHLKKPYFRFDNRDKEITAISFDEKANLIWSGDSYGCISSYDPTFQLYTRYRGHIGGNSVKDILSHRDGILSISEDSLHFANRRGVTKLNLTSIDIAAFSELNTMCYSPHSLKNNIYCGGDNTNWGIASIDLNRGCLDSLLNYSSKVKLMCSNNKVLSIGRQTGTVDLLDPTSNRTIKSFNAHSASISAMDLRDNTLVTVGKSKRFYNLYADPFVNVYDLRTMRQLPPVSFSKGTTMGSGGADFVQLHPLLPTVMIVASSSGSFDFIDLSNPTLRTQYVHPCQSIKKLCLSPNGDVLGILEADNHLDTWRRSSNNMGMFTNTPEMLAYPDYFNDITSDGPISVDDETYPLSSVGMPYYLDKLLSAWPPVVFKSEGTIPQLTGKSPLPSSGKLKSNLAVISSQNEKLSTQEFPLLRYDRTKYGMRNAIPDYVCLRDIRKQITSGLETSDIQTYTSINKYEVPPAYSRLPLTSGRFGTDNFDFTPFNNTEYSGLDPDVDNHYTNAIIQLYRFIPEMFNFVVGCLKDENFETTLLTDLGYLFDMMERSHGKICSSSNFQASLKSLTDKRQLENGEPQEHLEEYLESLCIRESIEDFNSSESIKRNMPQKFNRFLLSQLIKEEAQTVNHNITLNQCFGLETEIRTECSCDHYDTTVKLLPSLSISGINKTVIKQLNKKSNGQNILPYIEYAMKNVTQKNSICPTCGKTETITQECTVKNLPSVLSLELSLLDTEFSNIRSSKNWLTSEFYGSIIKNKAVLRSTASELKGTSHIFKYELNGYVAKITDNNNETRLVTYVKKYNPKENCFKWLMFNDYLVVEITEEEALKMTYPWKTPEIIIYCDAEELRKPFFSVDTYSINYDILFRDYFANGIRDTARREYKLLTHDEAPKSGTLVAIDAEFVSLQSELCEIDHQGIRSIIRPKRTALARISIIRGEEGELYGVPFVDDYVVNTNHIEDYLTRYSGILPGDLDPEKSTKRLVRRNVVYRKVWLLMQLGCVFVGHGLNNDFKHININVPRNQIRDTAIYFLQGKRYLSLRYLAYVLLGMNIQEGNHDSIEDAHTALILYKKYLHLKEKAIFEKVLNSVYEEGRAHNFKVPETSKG

[9] = biological target: the molecule itself; assay: as above

Kd [1]: 10 nM | Kd [2]: 50 nM | dH [2]: -30 kcal/mol | stoichiometry N (Pan2 chain per Pan3 dimer) [2]: 1
Molecule: ctPan3 pseudokinase/C-terminal domain (PKC, residues 205–640), purified from E. coli (from UniProt G0S0Y3 205-640) (domain or fragment)

B1: C15 RNA (NMR) (ssRNA)
RNA: CCCCCCCCCCCCCCC
binding result [3]: no binding

B2: U15 RNA (NMR) (ssRNA)
RNA: UUUUUUUUUUUUUUU
binding result [3]: no binding

B3: Cy3-A25 RNA (ssRNA)
RNA: AAAAAAAAAAAAAAAAAAAAAAAAA
Kd [4]: 620 ± 60 nM | Kd [5]: 270 ± 20 nM

B4: Cy3-G15 RNA (ssRNA)
RNA: GGGGGGGGGGGGGGG
Kd [6]: 550 ± 50 nM

B5: polyA15 RNA (NMR) (ssRNA)
RNA: AAAAAAAAAAAAAAA
Kd [7]: ~77500 nM

B6: Cy3-U15 RNA (ssRNA)
RNA: UUUUUUUUUUUUUUU
Kd [4]: 1600 ± 600 nM

stoichiometry N [8]: 2 scPan3 per scPan2
B7: Saccharomyces cerevisiae Pan3 (scPan3), full length, of the recombinant scPan2–Pan3 complex (natural protein, UniProt P36102 1-679, looked up)
chain: MDKINPDWAKDIPCRNITIYGYCKKEKEGCPFKHSDNTTATTINDVPPPIDVGEATTPTMTSVPKFNAKVSASFTPMTVGSDSLTTVTNTTSAATNATGNIAMAATSATASTVNPMINPIVNSSLVNNNNNNSNISISIPTTASSSNYDPFNAPIFTPSSTSSIHTNANAHSFPFPSIANSGGININATDDNSNNMSMANNVPPPMQPPPIESSNLKYPRIYPPPHSLLQYHLYAPEQPSSLKSLLKPNERSADQLFIPNNIREDLTKKNLSILQVFPSSGKVIPSIVQDYFNLVPLNFNNNDFLNKTTLFKVFSNYDGKAYVLKRLPNIDKSMNPNKISKIYQIWSKINCTNLIKFRDIFQTTKFGDLSICLVFDYYPNSLSLYDYHFVNFPKFPITNNYLWIYLVQLTNVINSIHSQNLSIGNTLNWRKVLITGDPGRIKLSHCNFMDLLFNDDTDTVVSSGGSTIEGQQQLDYKYLGELLFNLSINIENSNNNTAPKEYRLEEITPQSIDDMRQIDDKFKDVLKYLISDNGDSKKSIHDLTSHFYDKMFMVLESSQTYTEYMESVLSRELENGRLFRLVNKLNCIFGRIESRIDINWSESGTKFPIILFYDYVFHQVDSNGKPIMDLTHVLRCLNKLDAGIQEKLMLVTPDELNCIIISYKELKDLIESTFRSITQ
notes: Pan3, Saccharomyces cerevisiae; Two copies stand in the scPan2–Pan3 heterotrimer by nanoESI-MS
binding result [9]: binds

B8: Cy3-C15 RNA (ssRNA)
RNA: CCCCCCCCCCCCCCC
Kd [4]: 2200 ± 1700 nM

B9: Cy3-A15 RNA (ssRNA)
RNA: AAAAAAAAAAAAAAA
Kd [4]: 2100 ± 1400 nM
